First the molecules themselves.
B1: Myc-B55α wild type [not stated] / Flag-pRB [not stated] (parent complex)
chain 1: MAGAGGGNDIQWCFSQVKGAVDDDVAEADIISTVEFNHSGELLATGDKGGRVVIFQQEQENKIQSHSRGEYNVYSTFQSHEPEFDYLKSLEIEEKINKIRWLPQKNAAQFLLSTNDKTIKLWKISERDKRPEGYNLKEEDGRYRDPTTVTTLRVPVFRPMDLMVEASPRRIFANAHTYHINSISINSDYETYLSADDLRINLWHLEITDRSFNIVDIKPANMEELTEVITAAEFHPNSCNTFVYSSSKGTIRLCDMRASALCDRHSKLFEEPEDPSNRSFFSEIISSISDVKFSHSGRYMMTRDYLSVKIWDLNMENRPVETYQVHEYLRSKLCSLYENDCIFDKFECCWNGSDSVVMTGSYNNFFRMFDRNTKRDITLEASRENNKPRTVLKPRKVCASGKRKKDEISVDSLDFNKKILHTAWHPKENIIAVATTNNLYIFQDKVN
chain 2: MPPKTPRKTAATAAAAAAEPPAPPPPPPPEEDPEQDSGPEDLPLVRLEFEETEEPDFTALCQKLKIPDHVRERAWLTWEKVSSVDGVLGGYIQKKKELWGICIFIAAVDLDEMSFTFTELQKNIEISVHKFFNLLKEIDTSTKVDNAMSRLLKKYDVLFALFSKLERTCELIYLTQPSSSISTEINSALVLKVSWITFLLAKGEVLQMEDDLVISFQLMLCVLDYFIKLSPPMLLKEPYKTAVIPINGSPRTPRRGQNRSARIAKQLENDTRIIEVLCKEHECNIDEVKNVYFKNFIPFMNSLGLVTSNGLPEVENLSKRYEEIYLKNKDLDARLFLDHDKTLQTDSIDSFETQRTPRKSNLDEEVNVIPPHTPVRTVMNTIQQLMMILNSASDQPSENLISYFNNCTVNPKESILKRVKDIGYIFKEKFAKAVGQGCVEIGSQRYKLGVRLYYRVMESMLKSEEERLSIQNFSKLLNDNIFHMSLLACALEVVMATYSRSTSQNLDSGTDLSFPWILNVLNLKAFDFYKVIESFIKAEGNLTREMIKHLERCEHRIMESLAWLSDSPLFDLIKQSKDREGPTDHLESACPLNLPLQNNHTAADMYLSPVRSPKKKGSTTRVNSTANAETQATSAFQTQKPLKSTSLSLFYKKVYRLAYLRLNTLCERLLSEHPELEHIIWTLFQHTLQNEYELMRDRHLDQIMMCSMYGICKVKNIDLKFKIIVTAYKDLPHAVQETFKRVLIKEEEYDSIIVFYNSVFMQRLKTNILQYASTRPPTLSPIPHIPRSPYKFPSSPLRIPGGNIYISPLKSPYKISEGLPTPTKMTPRSRILVSIGESFGTSEKFQKINQMVCNSDRVLKRSAEGSNPPKPLKKLRFDIEGSDEADGSKHLPGESKFQQKLAEMTSTRTRMQKQKMNDSMDTSNKEEK

In this assay the parent is B1. The experiment in a line: co-immunoprecipitation (anti-Myc IP), western blot quantitation; 293T cells, co-transfected; read off a plot.
Turning to chain 1 F280A, the ratio to parent is around 0.5. The result for chain 1 T436A reads around 0.7. The result for chain 1 D116A reads around 0.35.

The record behind these values is article PMC8575462, “PP2A/B55α substrate recruitment as defined by the retinoblastoma-related protein p107” (eLife, 2021).
